Reference: IntAct's records for PubMed 20006610

B1: Retinol dehydrogenase 12 (Homo sapiens), Q96NR8 (parent)
chain: MLVTLGLLTSFFSFLYMVAPSIRKFFAGGVCRTNVQLPGKVVVITGANTGIGKETARELASRGARVYIACRDVLKGESAASEIRVDTKNSQVLVRKLDLSDTKSIRAFAEGFLAEEKQLHILINNAGVMMCPYSKTADGFETHLGVNHLGHFLLTYLLLERLKVSAPARVVNVSSVAHHIGKIPFHDLQSEKRYSRGFAYCHSKLANVLFTRELAKRLQGTGVTTYAVHPGVVRSELVRHSSLLCLLWRLFSPFVKTAREGAQTSLHCALAEGLEPLSGKYFSDCKRTWVSPRARNNKTAERLWNVSCELLGIRWE

Variants of: B1
Conditions: with ubc_human UBC

| effect of a mutation on the interaction | Variant |
| --- | --- |
| increasing interaction | MLVTLGLLTSFFSFLYMVAPSIRKFFAGGVCRTNVQLPGKVVVITGANTGNGKETARELASRGARVYIACRDVLKGESAASEIRVDTKNSQVLVRKLDLSDTKSIRAFAEGFLAEEKQLHILINNAGVMMCPYSKTADGFETHLGVNHLGHFLLTYLLLERLKVSAPARVVNVSSVAHHIGKIPFHDLQSEKRYSRGFAYCHSKLANVLFTRELAKRLQGTGVTTYAVHPGVVRSELVRHSSLLCLLWRLFSPFVKTAREGAQTSLHCALAEGLEPLSGKYFSDCKRTWVSPRARNNKTAERLWNVSCELLGIRWE [I51N] |

Variants of: B1
Conditions: with ubc_human UBC
Remark: another data set of the same source

| effect of a mutation on the interaction | Variant |
| --- | --- |
| increasing interaction | MLVTLGLLTSFFSFLYMVAPSIRKFFAGGVCRTNVQLPGKVVVITGANMGIGKETARELASRGARVYIACRDVLKGESAASEIRVDTKNSQVLVRKLDLSDTKSIRAFAEGFLAEEKQLHILINNAGVMMCPYSKTADGFETHLGVNHLGHFLLTYLLLERLKVSAPARVVNVSSVAHHIGKIPFHDLQSEKRYSRGFAYCHSKLANVLFTRELAKRLQGTGVTTYAVHPGVVRSELVRHSSLLCLLWRLFSPFVKTAREGAQTSLHCALAEGLEPLSGKYFSDCKRTWVSPRARNNKTAERLWNVSCELLGIRWE [T49M] |
